In article PMC2592702:

Molecular target: recombinant mouse PrP, amino acids 23–231 (rmPrP_(23-231)) (mouse)
Assay: ELISA

## POM2 monoclonal antibody (IgG)
  stoichiometry N: > 2
